The values that follow come from patent US20230051701A1 (Bristol-Myers Squibb, published 2023).

In test [1] the target is T1, N-terminal domain of hCD73 (residues 26-336 of human CD73), His-tagged (human, UniProt P21589 26-336).
T1 construct: also called N-hCD73; N-hCD73-his
T1 sequence: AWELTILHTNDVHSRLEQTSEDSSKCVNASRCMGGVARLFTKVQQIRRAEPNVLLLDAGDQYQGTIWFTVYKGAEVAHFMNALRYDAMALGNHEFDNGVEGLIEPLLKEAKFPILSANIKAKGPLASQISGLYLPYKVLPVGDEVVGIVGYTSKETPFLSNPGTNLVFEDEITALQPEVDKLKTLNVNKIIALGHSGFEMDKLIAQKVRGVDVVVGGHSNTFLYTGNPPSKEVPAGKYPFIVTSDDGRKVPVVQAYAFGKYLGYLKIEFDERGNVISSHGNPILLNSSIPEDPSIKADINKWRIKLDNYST
Kind of test: SPR, mAb captured on protein A. As for the experimental part: For these experiments, protein A (Pierce) was immobilized to a density of 3000 — 4000 RU on flow cells 1-4 of a CM5 sensor chip (GE Healthcare) using standard ethyl(dimethylaminopropyl) carbodiimide (EDC)/N-hydroxysuccinimide (NHS) chemistry, with ethanolamine blocking, in a running buffer of 0.01 M HEPES pH 7.4, 0.15 M NaCl, 3 mM EDTA, 0.005% v/v tween 20. […] The running buffer for the kinetic experiments was 10 mM sodium phosphate, 130 mM sodium chloride, 0.05% tween 20, pH 7.1. The surfaces were regenerated after each cycle using two 30 s pulses of 10 mM glycine pH 1.5 at a flow rate of 30 μl/min. Sensogram data was double-referenced and then fitted to a 1:1 Langmuir model using Biacore T100 evaluation software v2.0.4, to determine the association rate constant (ka), the dissociation rate constant (kd), and the equilibrium dissociation constant (KD).

The target in test [2] is T2, human CD73 on cells (Calu6, NCI-H292, SK-MEL-24, human tumor cell lines, human B and T cells) (human, UniProt P21589 27-549).
T2 sequence: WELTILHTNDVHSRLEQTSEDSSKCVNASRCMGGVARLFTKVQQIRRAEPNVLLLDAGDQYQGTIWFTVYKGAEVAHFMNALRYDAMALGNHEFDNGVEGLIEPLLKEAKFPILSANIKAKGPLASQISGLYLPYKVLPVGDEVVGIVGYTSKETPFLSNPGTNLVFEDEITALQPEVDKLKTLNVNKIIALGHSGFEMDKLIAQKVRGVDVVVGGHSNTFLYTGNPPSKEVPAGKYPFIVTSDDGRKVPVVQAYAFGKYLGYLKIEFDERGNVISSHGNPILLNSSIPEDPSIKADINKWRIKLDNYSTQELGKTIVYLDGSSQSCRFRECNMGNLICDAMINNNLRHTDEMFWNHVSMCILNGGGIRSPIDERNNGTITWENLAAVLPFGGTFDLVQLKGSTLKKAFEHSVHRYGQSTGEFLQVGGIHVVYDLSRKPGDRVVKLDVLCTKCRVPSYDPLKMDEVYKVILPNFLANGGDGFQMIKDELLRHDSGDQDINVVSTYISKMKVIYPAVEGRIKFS
Kind of test: cell-based or functional assay.

Test [3] has as its target T3, rhCD73 bound to his-tag magnet beads (human, UniProt P21589 27-549, limits assumed).
T3 sequence: T2 sequence
Kind of test: cell-based or functional assay.

In test [4] the target is T2, human CD73 on cells (Calu6, NCI-H292, …). As to the kind of experiment: cell-based or functional assay. The source holds these as a separate data set.
For test [5] the target is unchanged. Kind of test: cell-based or functional assay. This is another data set of the same source.

Positions count from the first letter of the chain named. In names and notes the source's numbering stands. Several values for one entry are separate records, joined by “and”; a condition that tells them apart may be missing. Equal entries are not always repeated.

B1: CD73.6-IgG2-C219S-IgG1.1f (antibody)
heavy: QVQLVESGGGVVQPGRSLRLSCAASGFTFSNYGMHWVRQAPGKGLEWVAVILYDSSNKYYPDSVKGRFTISRDNSKNTLYLQMNSLRAEDTAVYYCARGGSSWYPDSFDIWGQGTMVTVSSASTKGPSVFPLAPCSRSTSESTAALGCLVKDYFPEPVTVSWNSGALTSGVHTFPAVLQSSGLYSLSSVVTVPSSNFGTQTYTCNVDHKPSNTKVDKTVERKSCVECPPCPAPPVAGPSVFLFPPKPKDTLMISRTPEVTCVVVDVSHEDPEVKFNWYVDGVEVHNAKTKPREEQYNSTYRVVSVLTVLHQDWLNGKEYKCKVSNKALPSSIEKTISKAKGQPREPQVYTLPPSREEMTKNQVSLTCLVKGFYPSDIAVEWESNGQPENNYKTTPPVLDSDGSFFLYSKLTVDKSRWQQGNVFSCSVMHEALHNHYTQKSLSLSPGK
light: not shown
notes: also called CD73.6-IgG2CS IgG1.1f
In test [1], B1 came in with a dissociation constant (Kd) of 0.72 nM, a koff of 0.00022 s⁻¹ and a kon of 300000 M⁻¹ s⁻¹.

B2: CD73.4-IgG2.5G1-KH (antibody)
heavy: B1 heavy with S55G, C135S, S223C, S330A, S331P
light: not shown
Consider B2, for which, in test [2], the “CD73 Inhibition EC50(nM), cAMP assay, Calu6” value (“CD73 Inhibition EC50(nM)” below) came out at 0.44 nM and the “CD73 Inhibition S:B, cAMP assay, Calu6” value was 42.

B3: CD73.4-IgG2.5 (antibody)
heavy: QVQLVESGGGVVQPGRSLRLSCAASGFTFSNYGMHWVRQAPGKGLEWVAVILYDGSNKYYPDSVKGRFTISRDNSKNTLYLQMNSLRAEDTAVYYCARGGSSWYPDSFDIWGQGTMVTVSSASTKGPSVFPLAPSSRSTSESTAALGCLVKDYFPEPVTVSWNSGALTSGVHTFPAVLQSSGLYSLSSVVTVPSSNFGTQTYTCNVDHKPSNTKVDKTVERKCCVECPPCPAPPVAGPSVFLFPPKPKDTLMISRTPEVTCVVVDVSHEDPEVQFNWYVDGVEVHNAKTKPREEQFNSTFRVVSVLTVVHQDWLNGKEYKCKVSNKGLPAPIEKTISKTKGQPREPQVYTLPPSREEMTKNQVSLTCLVKGFYPSDIAVEWESNGQPENNYKTTPPMLDSDGSFFLYSKLTVDKSRWQQGNVFSCSVMHEALHNHYTQKSLSLSPGK
light: not shown
Consider B3, for which, in test [2], the “CD73 Inhibition EC50(nM)” value was found to be 2.17 nM and the “CD73 Inhibition S:B, cAMP assay, Calu6” value was found to be 51.

B4: CD73.4-IgG2.3G1-KH (antibody)
heavy: B1 heavy with S55G, S330A, S331P
light: not shown
Consider B4, for which, in test [2], the “CD73 Inhibition EC50(nM)” value worked out at 1.7 nM and the “CD73 Inhibition S:B, cAMP assay, Calu6” value was 52.

B5: CD73.4-IgG2.5G1.1f-KH (antibody)
heavy: B1 heavy with S55G, C135S, S223C
light: not shown
In the case of B5, in test [2], the “CD73 Inhibition EC50(nM)” value worked out at 0.87 nM and the “CD73 Inhibition S:B, cAMP assay, Calu6” value came out at 45.

B6: 10D2 (antibody, human IgG4, kappa, V domains shown)
VH: QVQLVESGGGVVQPGRSLRLSCAASGFTFSNYGLHWVRQAPGKGLEWVAVIRYDGSNKYYADSVKGRFTISRDNSKNTLYLQMSSLRAEDTAVYYCARGGSSWYPDGLDVWGQGTTVTVSS
VL: DIQMTQSPSSLSASVGDRVTITCRASQGISSWLAWYQQKPEKAPKSLIYAASSLQSGVPSRFSGSGSGTDFTLTISSLQPEDFATYYCQQYNSYPLTFGGGTKVEIKR
notes: also called 10D2-2
B6: the “EC50 (nM), inhibition of bead-bound rhCD73 enzymatic activity” value in test [3] was found to be 6.94 nM. The “Ymax, CD73 internalization, Calu6, 2 h” value in test [4] is 29 % of 100 nM 11F11. In test [1], this molecule displayed a Kd of 1.6 nM, an off-rate constant (koff) of 0.00095 s⁻¹ and an on-rate (kon) of 610000 M⁻¹ s⁻¹.

B7: 24H2 (antibody, human IgG4, kappa, V domains shown)
VH: B6 VH with L34M, R52W, S56G, Y80F, S84N, G107A, L108F, V110I, T116M
VL: B6 VL
notes: also called 24H2-1
As for B7, the “EC50 (nM), inhibition of bead-bound rhCD73 enzymatic activity” value in test [3] was determined as 4.18 nM. For the same molecule, in test [4], the “EC50 (nM), CD73 internalization, Calu6, 2 h” value was found to be 8.2 nM and the “Ymax, CD73 internalization, Calu6, 2 h” value is 51 % of 100 nM 11F11. In test [1], this molecule gave an equilibrium dissociation constant (Kd) of 14 nM, a dissociation rate constant (koff) of 0.0032 s⁻¹ and an association rate constant (kon) of 230000 M⁻¹ s⁻¹.

B8: CD73.4-IgG2.3-plusTHT (antibody)
heavy: QVQLVESGGGVVQPGRSLRLSCAASGFTFSNYGMHWVRQAPGKGLEWVAVILYDGSNKYYPDSVKGRFTISRDNSKNTLYLQMNSLRAEDTAVYYCARGGSSWYPDSFDIWGQGTMVTVSSASTKGPSVFPLAPCSRSTSESTAALGCLVKDYFPEPVTVSWNSGALTSGVHTFPAVLQSSGLYSLSSVVTVPSSNFGTQTYTCNVDHKPSNTKVDKTVERKSCVETHTCPPCPAPPVAGPSVFLFPPKPKDTLMISRTPEVTCVVVDVSHEDPEVQFNWYVDGVEVHNAKTKPREEQFNSTFRVVSVLTVVHQDWLNGKEYKCKVSNKGLPAPIEKTISKTKGQPREPQVYTLPPSREEMTKNQVSLTCLVKGFYPSDIAVEWESNGQPENNYKTTPPMLDSDGSFFLYSKLTVDKSRWQQGNVFSCSVMHEALHNHYTQKSLSLSPGK
light: not shown
Turning to B8, the “CD73 Inhibition S:B, cAMP assay, Calu6” value in test [2] was determined as 33.

B9: CD73.4-IgG2.5-plusTHT (antibody)
heavy: B8 heavy with C135S, S223C
light: not shown
Consider B9, for which, in test [2], the “CD73 Inhibition EC50(nM)” value amounted to 0.9 nM and the “CD73 Inhibition S:B, cAMP assay, Calu6” value amounted to 44.

B10: CD73.4-IgG2.3-plusGGG (antibody)
heavy: B8 heavy with T227G, H228G, T229G
light: not shown
B10: in test [2], the “CD73 Inhibition EC50(nM)” value amounted to 1.26 nM.

B11: CD73.11-IgG2-C219S (antibody)
heavy: QVQLVESGGGVVQPGRSLRLSCAASGFTFSNYGMHWVRQAPGKGLEWVAVIWYDESNKYYADSVKGRFTISRDNSKNTLFLQMNSLRAEDTAVYYCARGYNSRWYPDAFDIWGQGTMVTVSSASTKGPSVFPLAPCSRSTSESTAALGCLVKDYFPEPVTVSWNSGALTSGVHTFPAVLQSSGLYSLSSVVTVPSSNFGTQTYTCNVDHKPSNTKVDKTVERKSCVECPPCPAPPVAGPSVFLFPPKPKDTLMISRTPEVTCVVVDVSHEDPEVQFNWYVDGVEVHNAKTKPREEQFNSTFRVVSVLTVVHQDWLNGKEYKCKVSNKGLPAPIEKTISKTKGQPREPQVYTLPPSREEMTKNQVSLTCLVKGFYPSDIAVEWESNGQPENNYKTTPPMLDSDGSFFLYSKLTVDKSRWQQGNVFSCSVMHEALHNHYTQKSLSLSPG
light: not shown
notes: 4D4 variable regions; also called CD73.11-IgG2CS; mAb-CD73.11-Vh-hHC-IgG2-C219S
As to B11, in test [1], the Kd was 3.5 nM and 6.5 nM; the off-rate constant (koff) is 0.00028 s⁻¹ and 0.00051 s⁻¹; the kon was 80000 M⁻¹ s⁻¹ and 79000 M⁻¹ s⁻¹.

B12: 4C3 (antibody, human IgG1, kappa, V domains shown)
VH: EVQLVESGGGLVQPGRSLRLSCAASGFTFDDYAMHWVRQAPGKGLEWVSGISWKSGSIGYADSVKGRFTISRDNAKNSLYLQMNSLRAEDTALYYCVKGYYVILTGLDYWGQGTLVTVSS
VL: not shown
notes: IgG1za from hybridoma; also called 4C3-1
For the molecule B12, the “Ymax, cAMP HTRF assay” value in test [5] was 80 % of 100 nM 11F11.
